Assay results: patent US20210246224A1 (Regeneron, published 2021)

Legend:
[1] = molecular target: T1, human APLP2 extracellular domain expressed with a C-terminal myc-myc-hexahistidine tag (human, UniProt Q06481 32-692); assay: SPR, antibody captured, hAPLP2-MMH injected, 25 C
T1 construct: also called hAPLP2-MMH; APLP2.mmh

[2] = molecular target: T1, human APLP2 extracellular domain …; assay: SPR (Biacore 4000), antibody captured on anti-human Fc, hAPLP2-MMH injected, 37 C
Experimental: (§1) Equilibrium dissociation constants (KD values) for HER2 and APLP2 binding to purified anti-HER2xAPLP2 bispecific and parental antibodies were determined using a real-time surface plasmon resonance biosensor using a Biacore 4000 instrument. The Biacore sensor surface was first derivatized by amine coupling with a monoclonal mouse anti-human Fc antibody (GE, Cat #BR-1008-39) to capture anti-HER2xAPLP2 bispecific monoclonal antibodies. […] Kinetic association rate constant (ka) and dissociation rate constant (kd) were determined by fitting the real-time sensorgrams to a 1:1 binding model using Scrubber 2.0c curve fitting software. Binding dissociation equilibrium constants (KD) and dissociative half-lives (t1/2) were calculated from the kinetic rate constants as: […]

[3] = molecular target: T2, human HER2 expressed on cells (cancer cell lines and normal primary cultures) (human, UniProt P04626 23-1255); assay: cell-based or functional assay
[4] = molecular target: T2, human HER2 expressed on cells (cancer …); assay: imaging, Alexa647-labelled antibody 10 ug/mL at 4 C on JIMT-1 cells; signal per nuclei, normalised to the highest cell line
Experimental: (§2) After, cells were washed twice with cold DMEM+10% FBS. […] After, the solution was replaced with DPBS/CM. Binding of the bispecific antibodies to each of the cell types was measured using an Image Xpress^Micro automatic microscope (Molecular Devices). […] (See also FIG. 2.)
(§3) The signal of antibody binding (mean intensity fluorescence of Alexa647) divided by the nuclei signals was determined for each condition using MetaXpress software (Molecular Devices). Values were normalized to the cell line displaying the highest antibody binding signal.

[5] = molecular target: T2, human HER2 expressed on cells (cancer …); assay: imaging, Alexa647-labelled antibody 10 ug/mL at 4 C on SKBR3 cells; signal per nuclei, normalised to the highest cell line
Experimental: To test the ability of bispecific anti-HER2xAPLP2 molecules described herein to bind to cells lines expressing various levels of HER2, a high content imaging assay was performed. […] Cells were plated on collagen-coated, black wall, 96-well, optical plates (Greiner, Cat #655936) at 2.5×10⁵ cells per well in their appropriate culture media, which is described for each cell line/culture in Table 6, and incubated overnight at 37° C. in 5% CO₂.
as §2, §3

[6] = molecular target: T3, human HER2 extracellular domain expressed with a C-terminal myc-myc-hexahistidine tag (human, UniProt P04626 23-652); assay: SPR (Biacore 4000), antibody captured on anti-human Fc, hHER2-MMH injected, 37 C
T3 construct: also called hHER2-MMH; HER2.mmh
Experimental: as §1

[7] = molecular target: T2, human HER2 expressed on cells (cancer …); assay: imaging, Alexa647-labelled antibody 10 ug/mL at 4 C on NLE cells; signal per nuclei, normalised to the highest cell line
Experimental: as §2, §3

[8] = molecular target: T2, human HER2 expressed on cells (cancer …); assay: imaging, Alexa647-labelled antibody 10 ug/mL at 4 C on T47D cells; signal per nuclei, normalised to the highest cell line
Experimental: as §2, §3

[9] = molecular target: T2, human HER2 expressed on cells (cancer …); assay: imaging, Alexa647-labelled antibody 10 ug/mL at 4 C on MDA-MB-361 cells; signal per nuclei, normalised to the highest cell line
Experimental: as §2, §3

[10] = molecular target: T2, human HER2 expressed on cells (cancer …); assay: imaging, Alexa647-labelled antibody 10 ug/mL at 4 C on MDA-MB-453 cells; signal per nuclei, normalised to the highest cell line
Experimental: as §2, §3

[11] = molecular target: T2, human HER2 expressed on cells (cancer …); assay: imaging, Alexa647-labelled antibody 10 ug/mL at 4 C on NBE cells; signal per nuclei, normalised to the highest cell line
Experimental: as §2, §3

[12] = molecular target: T2, human HER2 expressed on cells (cancer …); assay: imaging, Alexa647-labelled antibody 10 ug/mL at 4 C on MCF7 cells; signal per nuclei, normalised to the highest cell line
Experimental: as §2, §3

B1: H4xH21362P2 (antibody, V domains shown)
VH: EVQLVESGGGLVQPGGSLRLSCAASGFTFSTYVMSWVRQAPGKGPEWVSGISGRTGTTYYADSVKGRFTISRDNSKNTLYLQMNSLRAEDTAVYYCASRITAAGRGYYYYYGMDVWGRGTTVTVSS
VL: not shown
notes: fully human antibody; also called anti-APLP2 parental antibody
B1 was tested, and the “90 nM hAPLP2-MMH Bound (RU)” value [1] was 36.6 RU, the Kd [1] was 11.2 nM and the t½ [1] was 10.9 min. The “100 nM hAPLP2-MMH Bound (RU)” value [2] was 34 RU, the Kd [2] was 176 nM and the t½ [2] was 1.3 min.

B2: H4H25018D-SMCC-DM1 (bispecific antibody, IgG4, V domains shown)
VH 1: QVQLQESGPGLVKPSQTLSLTCTVSGGSISSGHYFWSWIRQHPGKGLEWIGYIFYSGSTHYNPSLKSRLSISVDTSKNQFSLRLTSVTAADTAVYYCAREEGDYNFWDVDYVPGHFDYWGQGTLVTVSS
VH 2: EVQLVESGGGLVQPGRSLRLSCVASGFTFADYAMHWVRQAPGKGLEWVSGISWNSGNIDYADSVKGRFTISRDNAKNSLYLQMNSLRTEDTALYYCAKVRIVVAGYYYYYYGMDVWGQGTTVTVSS
VL: not shown
modifications: SMCC-DM1 on lysines, sites not stated
In the case of B2, the “IC50 (nM) of cell killing, JIMT-1 cells, 6 days, nuclei count” value (shortened to “IC50 (nM) of cell killing, JIMT-1 cells”) [3] is reported as 0.07 nM.

B3: H4H25014D (bispecific antibody, IgG4, V domains shown)
VH 1: QVQLQESGPGLVKPSQTLSLTCTVSGGSISSGHYFWSWIRQHPGKGLEWIGYIFYSGSTHYNPSLKSRLSISVDTSKNQFSLRLTSVTAADTAVYYCAREEGDYNFWDVDYVPGHFDYWGQGTLVTVSS
VH 2: EVQLVESGGGLVQPGGSLRLSCAASGFTFSTYVMSWVRQAPGKGPEWVSGISGRTGTTYYADSVKGRFTISRDNSKNTLYLQMNSLRAEDTAVYYCASRITAAGRGYYYYYGMDVWGRGTTVTVSS
VL: not shown
notes: Wild-type kappa CL and a modified (chimeric) IgG4 CH domain as set forth in US20140243504A1; also called bispecific anti-HER2xAPLP2 antibody
With B3 the “Antibody bound (% of highest)” value [4] was 17%, the “Antibody bound (% of highest)” value [5] was 100% and the Kd [6] was 3.37 nM. The t½ [6] was 16 min, the “Antibody bound (% of highest)” value [7] was 4% and the “Antibody bound (% of highest)” value [8] was 6%. The “Antibody bound (% of highest)” value [9] was 30%, the “90 nM hAPLP2-MMH Bound (RU)” value [1] was 17.1 RU and the Kd [1] was 9.98 nM. The t½ [1] was 12.2 min, the “Antibody bound (% of highest)” value [10] was 25% and the “Antibody bound (% of highest)” value [11] was 5%. For the same binder, the “Antibody bound (% of highest)” value [12] was 5%, the “100 nM hAPLP2-MMH Bound (RU)” value [2] was 23 RU and the Kd [2] was 235 nM. The t½ [2] was 1.1 min.

B4: H4H25018D-Compound I (bispecific antibody, V domains shown)
VH 1: QVQLQESGPGLVKPSQTLSLTCTVSGGSISSGHYFWSWIRQHPGKGLEWIGYIFYSGSTHYNPSLKSRLSISVDTSKNQFSLRLTSVTAADTAVYYCAREEGDYNFWDVDYVPGHFDYWGQGTLVTVSS
VH 2: EVQLVESGGGLVQPGRSLRLSCVASGFTFADYAMHWVRQAPGKGLEWVSGISWNSGNIDYADSVKGRFTISRDNAKNSLYLQMNSLRTEDTALYYCAKVRIVVAGYYYYYYGMDVWGQGTTVTVSS
VL: not shown
modifications: Compound I on lysines, sites not stated
In the case of B4, the “IC50 (nM) of cell killing, JIMT-1 cells” value [3] is reported as 0.2 nM.

B5: H4xH21387P2 (antibody, V domains shown)
VH: EVQLVESGGGLVQPGRSLRLSCVASGFTFADYAMHWVRQAPGKGLEWVSGISWNSGNIDYADSVKGRFTISRDNAKNSLYLQMNSLRTEDTALYYCAKVRIVVAGYYYYYYGMDVWGQGTTVTVSS
VL: not shown
notes: as for B1
B5 was tested, and the “90 nM hAPLP2-MMH Bound (RU)” value [1] was 60.5 RU, the Kd [1] was 11.3 nM and the t½ [1] was 11 min. For the same binder, the “100 nM hAPLP2-MMH Bound (RU)” value [2] was 114 RU, the Kd [2] was 124 nM and the t½ [2] was 1.1 min.

B6: H4H25019D-Compound I (bispecific antibody, V domains shown)
VH 1: QVQLVQSGPEVKKPGASVKVSCKASGYTFPNFGISWVRQAPGQGLEWMGWIAPYNVATNYAPKLQGRVTMTTDTSTSTAYMELRSLRSDDTAVYYCARWGAGYMGYYYYGMDVWGQGTTVTVSS
VH 2: EVQLVESGGGLVQPGRSLRLSCVASGFTFADYAMHWVRQAPGKGLEWVSGISWNSGNIDYADSVKGRFTISRDNAKNSLYLQMNSLRTEDTALYYCAKVRIVVAGYYYYYYGMDVWGQGTTVTVSS
VL: not shown
modifications: Compound I on lysines, sites not stated
For B6, the “IC50 (nM) of cell killing, JIMT-1 cells” value [3] was 0.75 nM.

B7: H4H13055P2 (antibody, V domains shown)
VH: QVQLQESGPGLVKPSQTLSLTCTVSGGSISSGHYFWSWIRQHPGKGLEWIGYIFYSGSTHYNPSLKSRLSISVDTSKNQFSLRLTSVTAADTAVYYCAREEGDYNFWDVDYVPGHFDYWGQGTLVTVSS
VL: not shown
notes: fully human antibody; also called anti-HER2 parental antibody
B7 was tested, and the “100 nM hAPLP2-MMH Bound (RU)” value [2] was 0 RU and the binding result [2] was “no binding (tested: 300 nM highest concentration injected)”.

B8: H4H25019D-SMCC-DM1 (bispecific antibody, V domains shown)
VH 1: QVQLVQSGPEVKKPGASVKVSCKASGYTFPNFGISWVRQAPGQGLEWMGWIAPYNVATNYAPKLQGRVTMTTDTSTSTAYMELRSLRSDDTAVYYCARWGAGYMGYYYYGMDVWGQGTTVTVSS
VH 2: EVQLVESGGGLVQPGRSLRLSCVASGFTFADYAMHWVRQAPGKGLEWVSGISWNSGNIDYADSVKGRFTISRDNAKNSLYLQMNSLRTEDTALYYCAKVRIVVAGYYYYYYGMDVWGQGTTVTVSS
VL: not shown
modifications: SMCC-DM1 on lysines, sites not stated
For B8, the “IC50 (nM) of cell killing, JIMT-1 cells” value [3] was 0.13 nM.

B9: H4H25018D-Compound II (bispecific antibody, V domains shown)
VH 1: QVQLQESGPGLVKPSQTLSLTCTVSGGSISSGHYFWSWIRQHPGKGLEWIGYIFYSGSTHYNPSLKSRLSISVDTSKNQFSLRLTSVTAADTAVYYCAREEGDYNFWDVDYVPGHFDYWGQGTLVTVSS
VH 2: EVQLVESGGGLVQPGRSLRLSCVASGFTFADYAMHWVRQAPGKGLEWVSGISWNSGNIDYADSVKGRFTISRDNAKNSLYLQMNSLRTEDTALYYCAKVRIVVAGYYYYYYGMDVWGQGTTVTVSS
VL: not shown
modifications: Compound II on reduced interchain cysteines
In the case of B9, the “IC50 (nM) of cell killing, JIMT-1 cells” value [3] is reported as 0.3 nM.

B10: H4H25019D-Compound II (bispecific antibody, V domains shown)
VH 1: QVQLVQSGPEVKKPGASVKVSCKASGYTFPNFGISWVRQAPGQGLEWMGWIAPYNVATNYAPKLQGRVTMTTDTSTSTAYMELRSLRSDDTAVYYCARWGAGYMGYYYYGMDVWGQGTTVTVSS
VH 2: EVQLVESGGGLVQPGRSLRLSCVASGFTFADYAMHWVRQAPGKGLEWVSGISWNSGNIDYADSVKGRFTISRDNAKNSLYLQMNSLRTEDTALYYCAKVRIVVAGYYYYYYGMDVWGQGTTVTVSS
VL: not shown
modifications: Compound II on reduced interchain cysteines
In the case of B10, the “IC50 (nM) of cell killing, JIMT-1 cells” value [3] is reported as 0.9 nM.

B11: H4xH21371P2 (antibody, V domains shown)
VH: QVQLVQSGVEVKKPGASVKVSCKASGYTFTDYGISWVRQAPGQGLEWMGWISAHNGNTNYAQKLQGRVTMTTDTSTNTAYMELRSLRSDDTAVYYCARRNWKYFDYWGQGTLVTVSS
VL: not shown
notes: as for B1
For B11, the “90 nM hAPLP2-MMH Bound (RU)” value [1] was 52.1 RU, the Kd [1] was 21.7 nM and the t½ [1] was 0.5 min. For the same binder, the “100 nM hAPLP2-MMH Bound (RU)” value [2] was 48 RU, the Kd [2] was 899 nM and the t½ [2] was 0.03 min.

B12: H4H13050P2 (antibody, V domains shown)
VH: QVQLVQSGPEVKKPGASVKVSCKASGYTFPNFGISWVRQAPGQGLEWMGWIAPYNVATNYAPKLQGRVTMTTDTSTSTAYMELRSLRSDDTAVYYCARWGAGYMGYYYYGMDVWGQGTTVTVSS
VL: not shown
notes: Names starting with H4 or H4H denote fully human antibodies; also called anti-HER2 parental antibody
For B12, the “100 nM hAPLP2-MMH Bound (RU)” value [2] was -3 RU.
